The values below come from article PMC12072002, “Site-Directed Mutagenesis Increased the Catalytic Activity and Stability of Oenococcus oeni β-Glucosidase: Characterization of Enzymatic Properties and Exploration of Mechanisms” (International Journal of Molecular Sciences, 2025).

Marks after values point to notes of the source that are not given here.

Holding throughout (experiment): p-Nitrophenol release read at 420 nm after Na2CO3 stop, 0.1-25 mM substrate in 20 mM sodium phosphate buffer at each enzyme's optimum (wild type pH 5.0, 50 °C; mutant III pH 3.5, 50 °C; mutant IV pH 4.0, 45 °C), Hill function fit in Origin.
Assay type in all cases: biochemical

Substrate in series [1]: O=[N+]([O-])c1ccc(O[C@@H]2O[C@H](CO)[C@@H](O)[C@H](O)[C@H]2O)cc1
Here is the method: (§1) 3.9. Enzymatic Reaction Kinetics and Substrate Specificity
(§2) The determination of enzymatic reaction kinetics was conducted according to Zhang et al., with slight modifications. Different concentrations (0.1 mM, 0.2 mM, 0.5 mM, 1.0 mM, 2.0 mM, 5.0 mM, 8.0 mM, 10 mM, 12 mM, 15 mM, 20 mM and 25 mM) of p-NPG substrate solutions were prepared with 20 mM sodium phosphate buffer. Then, 100 μg of enzyme lyophilized powder were added to 500 μL of p-NPG solutions at different concentrations. Next, this was reacted for 0 min, 5 min, 10 min, 15 min, 20 min, 25 min and 30 min under optimal reaction conditions, and at the end of each set of reactions, 500 μL 1 M of Na2CO3 solution were added to terminate the reaction. The absorbance value of each reaction system was measured at 420 nm and the amount of p-NP corresponding to different reaction times at specific substrate concentrations was calculated from the standard curve. The kinetic constants (Vmax and Km) of each reaction system were determined by fitting using the Hill function in the class of Growth/Inverse Curve for nonlinear fitting in the Origin Pro 8.0 software.
(§3) All experiments were set up in three parallels. The activities of the wild-type enzyme and five mutants were analyzed by ANOVA at the significance level of p < 0.05 using the SPSS 26.0 software, and multiple comparisons of the means were performed using Duncan’s method. The kinetic parameters of the enzymatic reactions for the wild-type enzyme and mutants catalyzing four substrates were subjected to independent sample t-tests at a significance level of p < 0.05, and the data were expressed as mean ± standard deviation. The experimental results were plotted using the Origin 2021 software.

Substrate in series [2]: O=[N+]([O-])c1ccc(O[C@H]2O[C@H](CO)[C@@H](O)[C@H](O)[C@H]2O)cc1
Here is the method: as §1, §2, §3

Substrate in series [3]: O=[N+]([O-])c1ccc(O[C@@H]2O[C@H](CO)[C@H](O)[C@H](O)[C@H]2O)cc1
As for the experimental part:
as §1, §2, §3

Substrate in series [4]: O=[N+]([O-])c1ccc(O[C@@H]2OC[C@@H](O)[C@H](O)[C@H]2O)cc1
Here is the method: as §1, §2, §3

B1: mutant III (Oenococcus oeni PSU-1; F133K) (protein)
chain: MNKLFLPKNFLWGGAVAANQLEGGWDQDNKGLSVADIMTAGANGKAREITDGIVKGKYYPNHEAIDFYHRYKEDIKLFAEMGFKCFRTSIAWTRIFPNGDEEQPNEAGLKFYDQLFDECHKYGIEPVITLSHKEMPYHLVKAYGGWRNRKLIDFFVRFAKTVFKRYKDKVSYWMTFNEIDNQTDYTNRFLMATNSGLILKNDQSDAESLMYQAAHYELVASALAVKLGHSINPNFQIGCMINMTPVYPASSKPADIFQAEKAMQRRYWFSDIHALGKYPENMEVFLKQNNFRPDITSEDRIVLKEGTVDYIGLSYYNSMTVQSKESNPGFHFIGPELTVDNPNVEKSDWGWPIDPLGLRYSLNWLADHYHKPLFIVENGLGAYDKVENSQQIHDPYRIAYLKAHIQAMIDAVQEDGVKVIGYTPWGCIDLVSAGTGQMSKRYGFIYVDKDDQGKGSLKRLKKDSFFWYQQVIQSNGSQLD
notes: purified recombinant, pMG36e plasmid, expressed in Lactococcus lactis MG1363
In general, Vmax refers to the rate approached at saturating substrate. In general, kcat refers to the maximal rate divided by the concentration of active sites. What is called kcat/Km is the second-order rate constant that governs catalysis at low substrate concentration. Regarding B1, in series [1], the Km was 0.27 ± 0.05 ^b mM, the Vmax was 533 ± 6.51 µM/min/mg, the kcat worked out at 490 ± 5.98 s⁻¹ and the kcat/Km amounted to 1.81e+06 M⁻¹ s⁻¹. In addition, in series [2], the Km is 1.19 ± 0.23 ^b mM, the Vmax is 25.8 ± 2.06 µM/min/mg, the turnover number (kcat) turned out to be 23.7 ± 1.89 s⁻¹ and the kcat/Km is 19900 M⁻¹ s⁻¹. Moreover, in series [3], the Km is 0.52 ± 0.17 ^a mM, the Vmax worked out at 349 ± 4.83 µM/min/mg, the kcat was determined as 321 ± 4.44 s⁻¹ and the kcat/Km came to 617000 M⁻¹ s⁻¹. In series [4], the Km is reported as 1.24 ± 0.13 ^b mM, the Vmax turned out to be 337 ± 4.61 µM/min/mg, the kcat is 310 ± 4.24 s⁻¹ and the kcat/Km was found to be 250000 M⁻¹ s⁻¹.

B2: mutant IV (Oenococcus oeni PSU-1; N181R) (protein)
chain: MNKLFLPKNFLWGGAVAANQLEGGWDQDNKGLSVADIMTAGANGKAREITDGIVKGKYYPNHEAIDFYHRYKEDIKLFAEMGFKCFRTSIAWTRIFPNGDEEQPNEAGLKFYDQLFDECHKYGIEPVITLSHFEMPYHLVKAYGGWRNRKLIDFFVRFAKTVFKRYKDKVSYWMTFNEIDRQTDYTNRFLMATNSGLILKNDQSDAESLMYQAAHYELVASALAVKLGHSINPNFQIGCMINMTPVYPASSKPADIFQAEKAMQRRYWFSDIHALGKYPENMEVFLKQNNFRPDITSEDRIVLKEGTVDYIGLSYYNSMTVQSKESNPGFHFIGPELTVDNPNVEKSDWGWPIDPLGLRYSLNWLADHYHKPLFIVENGLGAYDKVENSQQIHDPYRIAYLKAHIQAMIDAVQEDGVKVIGYTPWGCIDLVSAGTGQMSKRYGFIYVDKDDQGKGSLKRLKKDSFFWYQQVIQSNGSQLD
notes: as for B1
B2: in series [1], the Km was 0.22 ± 0.03^a mM, the Vmax is 841.6 ± 3.82 µM/min/mg, the catalytic constant (kcat) was 773.6 ± 3.52 s⁻¹ and the kcat/Km was 3.52e+06 M⁻¹ s⁻¹. Moreover, in series [2], the Km was 1.27 ± 0.19 ^c mM, the Vmax was 19.9 ± 1.98 µM/min/mg, the kcat amounted to 18.4 ± 1.82 s⁻¹ and the kcat/Km worked out at 14400 M⁻¹ s⁻¹. Also, in series [3], the Km is reported as 0.87 ± 0.24 ^c mM, the Vmax stood at 257 ± 5.47 µM/min/mg, the kcat was found to be 237 ± 5.03 s⁻¹ and the kcat/Km is 272000 M⁻¹ s⁻¹. In series [4], the Km is listed as 1.17 ± 0.16 ^a mM, the maximum rate (Vmax) is 359 ± 3.88 µM/min/mg, the kcat is 330 ± 3.57 s⁻¹ and the kcat/Km amounted to 282000 M⁻¹ s⁻¹.

B3: wild-type enzyme (Oenococcus oeni PSU-1) (protein)
chain: MNKLFLPKNFLWGGAVAANQLEGGWDQDNKGLSVADIMTAGANGKAREITDGIVKGKYYPNHEAIDFYHRYKEDIKLFAEMGFKCFRTSIAWTRIFPNGDEEQPNEAGLKFYDQLFDECHKYGIEPVITLSHFEMPYHLVKAYGGWRNRKLIDFFVRFAKTVFKRYKDKVSYWMTFNEIDNQTDYTNRFLMATNSGLILKNDQSDAESLMYQAAHYELVASALAVKLGHSINPNFQIGCMINMTPVYPASSKPADIFQAEKAMQRRYWFSDIHALGKYPENMEVFLKQNNFRPDITSEDRIVLKEGTVDYIGLSYYNSMTVQSKESNPGFHFIGPELTVDNPNVEKSDWGWPIDPLGLRYSLNWLADHYHKPLFIVENGLGAYDKVENSQQIHDPYRIAYLKAHIQAMIDAVQEDGVKVIGYTPWGCIDLVSAGTGQMSKRYGFIYVDKDDQGKGSLKRLKKDSFFWYQQVIQSNGSQLD
notes: purified recombinant BGL0224 (MT330371.1), plasmid pMG36e-0224, expressed in Lactococcus lactis MG1363
Take B3: in series [1], the Km was 0.33 ± 0.03 ^c mM, the Vmax was 363 ± 4.13 µM/min/mg, the kcat is 334 ± 3.8 s⁻¹ and the kcat/Km stood at 1.01e+06 M⁻¹ s⁻¹. In addition, in series [2], the Km was 1.07 ± 0.20 ^a mM, the Vmax is 29.6 ± 1.83 µM/min/mg, the kcat amounted to 27.2 ± 1.68 s⁻¹ and the kcat/Km was determined as 25400 M⁻¹ s⁻¹. In series [3], the Km is on record as 0.81 ± 0.16 ^b mM, the Vmax amounted to 231 ± 5.71 µM/min/mg, the kcat was 212 ± 5.25 s⁻¹ and the kcat/Km was found to be 262000 M⁻¹ s⁻¹. For the same protein, in series [4], the Km was 1.31 ± 0.22 ^c mM, the Vmax turned out to be 308 ± 3.64 µM/min/mg, the kcat was determined as 283 ± 3.34 s⁻¹ and the kcat/Km was 216000 M⁻¹ s⁻¹.
